According to article PMC6716676, “Chemokine signaling links cell-cycle progression and cilia formation for left–right symmetry breaking” (PLoS Biology, 2019):
Residue numbers refer to the chain shown, from its start. Numbers in names are those of the source.

B1: Flag-zFoxj1a (zebrafish forkhead box j1a) (natural protein, UniProt F1QDF8 1-458, looked up)
chain: MLSMSSMDPWPEGSVGLEEEVVTAAAQAERLDTSTPLQCNTSLDSDNLDDSLTSLQWLQEFSILNASTGQHTSPSSHSHLMGSDAPSSPLAGDPASIGMPLTPGKPTAASFCRVPMFSALPSLVAHGHCPDEVDYKSNPHIKPPYSYATLICMAMQASKKTKITLSCIYKWITDNFCYFRHADPTWQNSIRHNLSLNKCFIKVPRQKDEPGKGGFWKIDPQYAERLLNGAYKKRRLPPVQINPALQHRLRMNAQATGVISRNLSVSPESQQLLKDFEEATSADQNWDPRLAEATMLSCWISGKGTNKRKQPYNHRTGKTPRRSSSPLLVMDEQEDLSSLRGNFDWDALLDSALNGELSLNEGSPLSPTPQDEELMIRGTHISPQEAPVENHVLMETQRSGDEDFDEETFLATAFLQSPWSEVDESNRSDFLGSSTVSIDQLFDLSFGGDLSSKIETLL
notes: forkhead box j1a (Foxj1a), zebrafish; In the self-association co-IP the second copy carried an HA tag instead of Flag (HA-zFoxj1a); also called Flag-tagged zFoxj1a; wild-type zFoxj1a; source: HEK293T, transfected, in lysate
B2: Flag-zFoxj1a-T102D (natural protein, zebrafish, UniProt F1QDF8 1-458, looked up)
chain: B1 chain with T102D
notes: forkhead box j1a (Foxj1a), zebrafish; In the self-association co-IP the second copy was differently tagged (HA); also called phospho-mimicking mutant of zFoxj1a; T102D mutant; source: HEK293T, transfected, in lysate

Experiments:
[1] = biological target: zFoxj1a (zebrafish Foxj1a) (UniProt F1QDF8); assay: co-IP of Flag- and HA-tagged zFoxj1a; conditions: reference: wild type (both tagged copies); sites T102
[2] = biological target: the molecule itself; assay: native gel or EMSA; whole-cell lysates of HEK293T cells with overexpressed Flag-tagged zFoxj1a or its mutants separated on SDS- and native PAGEs

Molecule	binding against the reference [1]	stoichiometry N [2]
zFoxj1a (zebrafish Foxj1a) (from UniProt F1QDF8) T102A (both tagged copies)	weaker	
B1		2
B2		2
